Substitutions are numbered along the chain they refer to.
Experiments:
[1] = molecular target: T1, NKp30 (form in the assay not stated) (UniProt O14931 19-135, limits assumed); experiment: flow cytometry, y axis NKp30 (MFI); cells not named in the legend or on the sheet
T1 construct: It is inferred from BGA1831 being an anti-NKp30 antibody
T1 sequence (looked up): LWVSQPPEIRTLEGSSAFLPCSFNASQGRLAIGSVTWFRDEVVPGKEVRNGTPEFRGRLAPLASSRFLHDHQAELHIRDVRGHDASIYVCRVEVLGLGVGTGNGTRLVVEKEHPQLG

NKp30-mIgG2a = molecular target: T2, NKp30-mIgG2a (human; mouse, UniProt O14931 19-135); experiment: flow cytometry blocking assay; binding of NKp30-mIgG2a to B7-H6 on HCT116/B7-H6 cells in the presence of serially diluted antibody
T2 construct: also called soluble NKp30; NKp30-mIgG2a fusion protein; not shown: Fc domain of mouse IgG2a, fused to the C-terminus of the NKp30 ECD
T2 sequence: T1 sequence (looked up)
Experimental: A schematic diagram showing the inhibition of NKp30/B7-H6 interactions by anti-NKp30 Ab. The binding of soluble NKp30 (NKp30-mIgG2a fusion protein) to B7-H6-expressing HCT116 cells (HCT116/B7-H6) was determined by flow cytometry. The blockade of NKp30/B7-H6 interaction was quantitatively measured by adding serially diluted BGA1833/IgG1. Results are shown in mean±SD of duplicates.
(Joyce et al., 2011 PNAS 108:6223-6228). […] In addition, these two residues were previously determined to be important for NKp30/B7-H6 interaction in a structural study (Li et al., J Exp Med. 2011 208:703-714). […] For this assay, a B7-H6 stably transduced cell line HCT116/B7-H6 was incubated with NKp30-mIgG2a in the presence of serially diluted BGA1833, followed by detection with […].

his-tagged human NKp30 [2] = molecular target: T3, his-tagged human NKp30 (human, UniProt O14931 19-135); experiment: SPR (BIAcore T-200), antibody captured by anti-mouse IgG, his-tagged human NKp30 as analyte
T3 construct: Analyte of the SPR assay; not shown: his tag
T3 sequence: T1 sequence (looked up)
Excerpt: The NKp30 antibodies with high binding activities in ELISA and FACS, as well as with potent functional activities in the cell-based assays (described in Example 1 above) were characterized for their binding kinetics by SPR assays using BIAcore™ T-200 (GE Life Sciences). Briefly, an anti-mouse IgG antibody was immobilized on an activated CM5 biosensor chip (Cat. No.: BR100530, GE Life Sciences). Purified NKp30 murine antibodies were flowed over the chip surface and captured by the anti-mouse IgG antibody. Then a serial dilution (0.098 nM to 25 nM) of his-tagged human NKp30 was flowed over the chip surface and changes in surface plasmon resonance signals were analyzed to calculate the association rates (kₒₙ) and dissociation rates (koff) by using the one-to-one Langmuir binding model (BIA Evaluation Software, GE Life Sciences). The equilibrium dissociation constant (KD) was calculated as the ratio koff/kₒₙ.

[3] = molecular target: T4, full-length human NKp30 on NK92MI cells (human, UniProt O14931 19-201); experiment: flow cytometry on live NK92MI cells over-expressing human NKp30, goat anti-human IgG detection
T4 construct: Full-length human NKp30 over-expressed on NK92MI cells; also called huNKp30; native NKp30
T4 sequence: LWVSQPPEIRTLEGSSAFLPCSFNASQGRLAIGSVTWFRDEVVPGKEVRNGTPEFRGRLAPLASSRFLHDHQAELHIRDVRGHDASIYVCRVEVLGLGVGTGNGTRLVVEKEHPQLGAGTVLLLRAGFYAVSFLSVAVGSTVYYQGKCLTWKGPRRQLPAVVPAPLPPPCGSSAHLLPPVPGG
Experimental: To evaluate the binding activity of anti-NKp30 antibodies to native NKp30 on living cells, NK92MI cells were transfected to over-express human NKp30. Live NK92mi/NKp30 expressing cells were seeded in 96-well plates and were incubated with a serial dilution of anti-NKp30 antibodies. Goat anti-Human IgG was used as secondary antibody to detect antibody binding to the cell surface. EC₅₀ values for dose-dependent binding to human native NKp30 were determined by fitting the dose-response data to the four-parameter logistic model with GraphPad Prism™.

his-tagged human NKp30 [4] = molecular target: T3, his-tagged human NKp30; experiment: SPR, antibody captured on anti-human Fc surface; NKp30 analyte not named in Example 4
Excerpt: Further engineered versions of humanized monoclonal antibodies were derived from the mutation process described as above and characterized in detail. […] For affinity determination, antibodies were captured by anti-human Fc surface, and used in the affinity assay based on surface plasmon resonance (SPR) technology. All the humanization antibodies shown above were also confirmed for functional activities on primary human immune cells isolated from healthy donors (described in Example 7 below).

B1: mu183 (antibody, V domains shown)
VH: QVQLQQPGSVLVRPGASVKLSCKASGYTFTSSWMHWAKQRPGQGLEWIGEIHPNRDNTNYNEKFKGKATLTVDTSSSTAYVDLSSLTSEDSAVYYCARSYYDYGGAYFDSWGQGTTLTVSS
VL: QIVLTQSHKFMSTSVGDRVSITCKASQDVSTAVAWYQQKPGQSPKLLIYAASYRHIGVPDRFTGSGSGTDFTFTISSVQAEDLAVYYCQQHYSNPFTFGSGTKLEIK
notes: Murine hybridoma antibody, purified on Protein A; also called murine anti-NKp30 antibody mu183
EC50 [1]: 0.263 µg/mL | IC50 (NKp30-mIgG2a): 0.169 µg/mL | Kd (his-tagged human NKp30 [2]): 0.132 nM | koff (his-tagged human NKp30 [2]): 0.00021 s⁻¹ | kon (his-tagged human NKp30 [2]): 1.59e+06 M⁻¹ s⁻¹

B2: ch183 (antibody, V domains shown)
VH: B1 VH
VL: B1 VL
notes: not shown: human immunoglobulin kappa constant region
EC50 [3]: 1.55 nM | Kd (his-tagged human NKp30 [4]): 0.143 nM | koff (his-tagged human NKp30 [4]): 0.000318 s⁻¹ | kon (his-tagged human NKp30 [4]): 2.22e+06 M⁻¹ s⁻¹

B3: BGA1833/IgG1 (antibody)
heavy: not shown
light: QIQLTQSPSSLSASVGDRVTITCKASQDVSTAVAWYQQKPGKAPKLLIYAASYRHIGVPSRFSGSGSGTDFTLTISSLQPEDFATYYCQQHYSNPFTFGGGTKVEIKRTVAAPSVFIFPPSDEQLKSGTASVVCLLNNFYPREAKVQWKVDNALQSGNSQESVTEQDSKDSTYSLSSTLTLSKADYEKHKVYACEVTHQGLSSPVTKSFNRGEC
notes: BGA1833 with wild-type human IgG1 heavy chain; also called BGA1833 with wt IgG1
IC50 (NKp30-mIgG2a): 0.144 µg/mL

B4: BGA1832 (antibody, human IgG1, kappa, V domains shown)
VH: QVQLVQSGAEVKKPGASVKVSCKASGYTFTSSYMHWVRQAPGQGLEWMGEIHPNRDNTNYNEKFKGRVTMTVDTSTSTVYMELSSLRSEDTAVYYCARSYYDYGGAYFDAWGQGTLVTVSS
VL: DIQLTQSPSSLSASVGDRVTITCKASQDVSTAVAWYQQKPGKAPKLLIYAASYRHIGVPSRFSGSGSGTDFTLTISSLQPEDFATYYCQQHYSNPFTFGGGTKVEIKR
Kd (his-tagged human NKp30 [4]): 0.213 nM | koff (his-tagged human NKp30 [4]): 0.000331 s⁻¹ | kon (his-tagged human NKp30 [4]): 1.55e+06 M⁻¹ s⁻¹

B5: BGA1831 (antibody, human IgG1, kappa, V domains shown)
VH: B4 VH with E10V, K12V, Y33W, V37A, M48I, V68A, M70L, V79A, A110S
VL: B4 VL with D1Q, Q3V, A43S, L73F
notes: also called humanized anti-NKp30 Ab BGA1831
EC50 [3]: 1.26 nM | Kd (his-tagged human NKp30 [4]): 0.198 nM | koff (his-tagged human NKp30 [4]): 0.000377 s⁻¹ | kon (his-tagged human NKp30 [4]): 1.91e+06 M⁻¹ s⁻¹

Source: patent publication US20240376195A1 (BEIGENE, published 2024)
